The record followed here is paper PMC4853233.

The data set is described as follows: anti-FLAG western blot, 293T cells. The note with it: glycan lost; control: WT-TWSG1 adenovirus.

B1: twisted gastrulation (TWSG1): N80Q/N146Q (protein)
parent chain: MKSHYIVLALASLTFLLCLPVSQSCNKALCASDVSKCLIQELCQCRPGEGNCPCCKECMLCLGALWDECCDCVGMCNPRNYSDTPPTSKSTVEELHEPIPSLFRALTEGDTQLNWNIVSFPVAEELSHHENLVSFLETVNQLHHQNVSVPSNNVHAPFPSDKERMCTVVYFDDCMSIHQCKISCESMGASKYRWFHNACCECIGPECIDYGSKTVKCMNCMF
In the case of B1, the expression_or_secretion entry is “no change”.
